Read-outs that look alike come from different tables or passages of the source.
Columns and labels:
[1] = molecular target: KS-PPT di-domain construct of the S. cerevisiae FAS α-chain (S. cerevisiae); assay: SEC
[2] = molecular target: KS-PPT di-domain construct of the S. cerevisiae FAS α-chain (S. cerevisiae); assay: SEC; remark: listed apart in the source

In the case of “KS-PPT di-domain construct of the S. cerevisiae FAS α-chain (domain or fragment)”, the stoichiometry N [1] is reported as 2 and the stoichiometry N [2] is reported as 2.5.

Source: doi:10.1101/336578
